From article doi:10.1101/2024.07.03.601496

How the values were obtained:
[1] = biological target: Exd (for EMSA) (Drosophila) (UniProt P40427); assay: native gel or EMSA
[2] = biological target: Hth (for EMSA) (Drosophila) (UniProt O46339); assay: native gel or EMSA
UniProt O46339, sequence (O46339 whole entry): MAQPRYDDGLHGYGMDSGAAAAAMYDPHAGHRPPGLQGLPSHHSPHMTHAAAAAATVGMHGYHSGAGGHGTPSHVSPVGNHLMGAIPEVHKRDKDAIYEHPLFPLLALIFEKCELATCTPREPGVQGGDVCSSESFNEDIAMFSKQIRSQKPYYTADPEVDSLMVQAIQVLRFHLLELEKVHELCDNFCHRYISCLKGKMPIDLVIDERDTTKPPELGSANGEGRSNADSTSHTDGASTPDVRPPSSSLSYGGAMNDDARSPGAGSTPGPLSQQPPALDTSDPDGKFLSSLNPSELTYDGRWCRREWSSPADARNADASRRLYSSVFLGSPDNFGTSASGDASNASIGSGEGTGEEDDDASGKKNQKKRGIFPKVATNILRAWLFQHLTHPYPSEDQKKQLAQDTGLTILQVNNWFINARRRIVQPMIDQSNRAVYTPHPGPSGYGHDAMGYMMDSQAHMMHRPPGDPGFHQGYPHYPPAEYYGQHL

UniProt P40427, sequence (P40427 whole entry): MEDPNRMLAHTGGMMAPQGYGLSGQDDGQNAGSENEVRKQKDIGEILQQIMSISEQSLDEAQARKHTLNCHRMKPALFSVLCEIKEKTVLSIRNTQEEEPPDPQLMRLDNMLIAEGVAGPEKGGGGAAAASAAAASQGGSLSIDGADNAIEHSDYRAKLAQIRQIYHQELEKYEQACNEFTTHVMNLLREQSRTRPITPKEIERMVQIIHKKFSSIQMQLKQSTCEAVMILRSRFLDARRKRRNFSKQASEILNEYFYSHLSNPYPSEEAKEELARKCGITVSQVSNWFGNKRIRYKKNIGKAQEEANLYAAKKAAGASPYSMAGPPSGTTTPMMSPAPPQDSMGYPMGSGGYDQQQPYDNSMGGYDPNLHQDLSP

| percent reduction of the trimeric complex against wild type Abd-B [1] [%] | percent reduction of the trimeric complex against wild type Abd-B [2] [%] | Substance |
| --- | --- | --- |
| 25 | 25 | Abd-B^QR (QR>AA, for EMSA) (from UniProt P09087 1-493) (natural protein) |
| 56 | 56 | Abd-B^W (W>A, for EMSA) (from UniProt P09087 1-493) (natural protein) |
